The values that follow come from patent publication US20240043515A1 (Chugai, published 2024).

Changes are numbered by the printed parent chain. Names and notes keep the numbering of the source.

In assay [1] the target is T1, human FcγRIIIa V extracellular domain (human, UniProt P08637 17-208).
T1 construct: extracellular domain; also called hFcγR IIIa V; FcγRIIIa allotype V158
In words: SPR; KD for hFcγRIIb divided by KD for this FcγR. The protocol: (§1) The extracellular domains of FcγRs were produced by the method described in WO2014104165. The interaction between the produced antibodies and human FcγRs was analyzed using Biacore 8K+ by the method below. For the running buffer, 50 mM Na-Phosphate, 150 mM NaCl, and 0.05% Tween20 (pH 7.4) was used, and measurement was performed at 25° C. The sensor chip used was a Series S SA chip (GE Healthcare) onto which CaptureSelect Human Fab-kappa Kinetics Biotin Conjugate (Thermo Fisher Scientific) was immobilized. An antibody of interest was captured onto this chip, and each FcγR diluted with the running buffer was allowed to interact with it. The chip was regenerated using 10 mM Glycine-HCl (pH 1.5), and repeatedly used to capture antibodies and perform measurement. The dissociation constants KD (mol/L) of each antibody for FcγRs were calculated using Biacore Insight Evaluation Software, with a steady state affinity model for the dissociation constant for FcγRIIb and a 1:1 Langmuir binding model for the dissociation constants for the other FcγRs (Table 2).

For assay [2], the target named is T2, human FcγRIIa H extracellular domain (human, UniProt P12318 34-217).
T2 construct: extracellular domain; also called hFcγR IIa H; FcγRIIa allotype H131
T2 sequence (looked up): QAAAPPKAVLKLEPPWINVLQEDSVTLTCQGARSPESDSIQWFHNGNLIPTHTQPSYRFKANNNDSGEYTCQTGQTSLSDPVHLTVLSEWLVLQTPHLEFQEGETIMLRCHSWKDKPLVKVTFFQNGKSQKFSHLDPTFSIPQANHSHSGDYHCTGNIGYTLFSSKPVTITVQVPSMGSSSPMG
In words: SPR; KD for hFcγRIIb divided by KD for this FcγR. The protocol: as §1

Assay [3] concerns the target T3, human FcγRIIa R extracellular domain (human, UniProt P12318 34-217).
T3 construct: extracellular domain; also called hFcγR IIa R; FcγRIIa allotype R131
T3 sequence (looked up): T2 sequence (looked up) with H134R
Description: SPR; KD for hFcγRIIb divided by KD for this FcγR. The protocol: as §1

The target in assay [4] is T4, human FcγRIIIa F extracellular domain (human, UniProt P08637 17-208).
T4 construct: extracellular domain; also called hFcγR IIIa F; FcγRIIIa allotype F158
Description: SPR; KD for hFcγRIIb divided by KD for this FcγR. The protocol:
as §1

Assay [5] has as its target T5, human FcγRIIb extracellular domain (human, UniProt P31994 43-217).
T5 construct: extracellular domain; also called hFcγR IIb
T5 sequence (looked up): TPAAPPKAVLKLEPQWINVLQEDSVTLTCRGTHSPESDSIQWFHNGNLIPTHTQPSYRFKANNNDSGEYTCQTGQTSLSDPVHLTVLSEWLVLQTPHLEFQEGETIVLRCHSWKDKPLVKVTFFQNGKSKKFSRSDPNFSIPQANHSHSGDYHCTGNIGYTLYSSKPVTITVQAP
In words: SPR; KD of G1d divided by KD of this antibody. How it is done: as §1

Assay [6] concerns the target T1, human FcγRIIIa V extracellular domain. In words: SPR; KD of G1d divided by KD of this antibody. How it is done: as §1
The target in assay [7] is T2, human FcγRIIa H extracellular domain. In words: SPR; KD of G1d divided by KD of this antibody. The protocol:
as §1

For assay [8], the target named is T6, human FcγRIa extracellular domain (human, UniProt P12314 16-292).
T6 construct: extracellular domain; also called hFcγR Ia
Description: SPR; KD of G1d divided by KD of this antibody. The protocol:
as §1

The target in assay [9] is T3, human FcγRIIa R extracellular domain. Description: SPR; KD of G1d divided by KD of this antibody. How it is done: as §1
Assay [10] deals with T4, human FcγRIIIa F extracellular domain. Description: SPR; KD of G1d divided by KD of this antibody. How it is done: as §1
For assay [11], the target named is hFcγRIIIaV on Jurkat effector cells (human, UniProt P08637 17-254). Description: cell-based or functional assay.
Assay [12] deals with T7, hFcγRIIaH on Jurkat effector cells (human, UniProt P12318 34-317).
T7 sequence (looked up): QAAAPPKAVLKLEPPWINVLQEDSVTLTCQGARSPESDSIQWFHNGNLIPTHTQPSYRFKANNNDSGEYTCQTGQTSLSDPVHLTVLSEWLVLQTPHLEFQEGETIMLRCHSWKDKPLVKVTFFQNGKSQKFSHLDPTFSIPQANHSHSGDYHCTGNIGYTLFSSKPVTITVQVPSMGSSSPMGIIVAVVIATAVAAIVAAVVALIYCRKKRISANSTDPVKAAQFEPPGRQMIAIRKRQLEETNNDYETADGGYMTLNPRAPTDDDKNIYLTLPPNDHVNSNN
In words: cell-based or functional assay.

T4 sequence (P08637 17-208): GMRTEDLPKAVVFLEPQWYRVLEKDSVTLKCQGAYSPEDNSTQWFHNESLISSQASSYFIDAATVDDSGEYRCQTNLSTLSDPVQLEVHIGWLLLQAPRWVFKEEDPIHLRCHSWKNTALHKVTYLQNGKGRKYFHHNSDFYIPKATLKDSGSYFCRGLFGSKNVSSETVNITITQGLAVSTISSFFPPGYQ
hFcγRIIIaV on Jurkat effector cells, sequence (P08637 17-254, form in doubt): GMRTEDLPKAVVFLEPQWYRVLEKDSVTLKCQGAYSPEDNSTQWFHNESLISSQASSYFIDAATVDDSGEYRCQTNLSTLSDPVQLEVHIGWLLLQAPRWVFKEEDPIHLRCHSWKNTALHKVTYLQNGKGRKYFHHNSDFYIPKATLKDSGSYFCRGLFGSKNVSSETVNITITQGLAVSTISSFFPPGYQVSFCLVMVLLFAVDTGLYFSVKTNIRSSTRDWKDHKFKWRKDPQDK
T6 sequence (P12314 16-292): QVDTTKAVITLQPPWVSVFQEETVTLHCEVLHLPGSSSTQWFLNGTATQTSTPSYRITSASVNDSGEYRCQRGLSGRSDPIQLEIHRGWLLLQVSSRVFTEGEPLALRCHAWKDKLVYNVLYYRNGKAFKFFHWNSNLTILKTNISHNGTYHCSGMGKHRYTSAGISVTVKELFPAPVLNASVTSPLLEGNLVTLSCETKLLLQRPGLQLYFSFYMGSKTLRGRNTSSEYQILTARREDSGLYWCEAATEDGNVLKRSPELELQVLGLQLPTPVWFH
T1 sequence (P08637 17-208 F176V): as the sequence (P08637 17-208) above, with F160V counted along it

B1: EGL-ART5 (H240-Kn462/L73-k0//H240-H1441/L73-k0) (antibody, human IgG1, kappa)
heavy 1: QDQLVQSGAEVKKPGASVKVSCKASGFNIKDTYIQWVRQAPGQGLEWMGRIDPLRKQTKYREKFEGRVTITADTSTNTAYMELSSLRSEDTAVYYCVRSGREFDYWGQGTLVTVSSASTKGPSVFPLAPSSKSTSGGTAALGCLVKDYFPEPVTVSWNSGALTSGVHTFPAVLQSSGLYSLSSVVTVPSSSLGTQTYICNVNHKPSNTKVDKKVEPKSCDKTHTCPPCPAPEFQWGPMVFLFPPKPKDVLMISRTPEVTCVVVDVSDEEPEVKFNWYVDGVEVHNAKTKPREEQYNATYRVVSVLPVLHQDWLNGKEYKCKVSNDALPAPIEKTISKAKGQPREPQVCTLPPSRDELTKNQVSLWCLVKGFYPSDIAVEWESNGQPENNYKTTPPVLDSDGSFFLYSKLTVDKSRWQQGNVFSCSVMHEALHNHYTQKSLSLSP
heavy 2: QDQLVQSGAEVKKPGASVKVSCKASGFNIKDTYIQWVRQAPGQGLEWMGRIDPLRKQTKYREKFEGRVTITADTSTNTAYMELSSLRSEDTAVYYCVRSGREFDYWGQGTLVTVSSASTKGPSVFPLAPSSKSTSGGTAALGCLVKDYFPEPVTVSWNSGALTSGVHTFPAVLQSSGLYSLSSVVTVPSSSLGTQTYICNVNHKPSNTKVDKKVEPKSCDKTHTCPPCPAPELLAGPSVFLFPPKPKDVLMISRTPEVTCVVVDVSHEEPEVKFNWYVDGVEVHNAKTKPREEQYNATYRVVSVLPVLHQDWLNGKEYKCKVSNDALPAPIEETISKAKGQPREPQVYTLPPSRCELTKNQVSLSCAVKGFYPSDIAVEWESNGQPENNYKTTPPVLDSDGSFFLVSKLTVDKSRWQQGNVFSCSVMHEALHNHYTQKSLSLSP
light: DIQMTQSPSSLSASVGDRVTITCRASQDIHKYIAWYQQKPGQAPRLLIQYTSTLQPGVPSRFSGSGSGTDYTFTISSLQPEDIATYYCLQYEQLRTFGGGTKVEIKRTVAAPSVFIFPPSDEQLKSGTASVVCLLNNFYPREAKVQWKVDNALQSGNSQESVTEQDSKDSTYSLSSTLTLSKADYEKHKVYACEVTHQGLSSPVTKSFNRGEC
notes: Kn462: L234F/L235Q/G236W/S239M/T250V/H268D/D270E/S298A/T307P/K326D + Y349C/T366W; H1441: G236A/T250V/D270E/S298A/T307P/K326D/K334E + D356C/T366S/L368A/Y407V
For B1, the “A/I ratio (KD for FcγRIIb divided by KD for each FcγR)” value in assay [1] worked out at 2060 ratio; in assay [2], 240 ratio; in [3], 49.9 ratio; in assay [4], 399 ratio. For the same molecule, the “Relative value to KD between G1d and hFcgRs” value (from here on “Relative value”) stood at 1.3 times in assay [5]; 92.9 times in assay [6]; 33.9 times in assay [7]; 0.5 times in [8]; 10.4 times in assay [9]; 148 times in assay [10]. Also, the “EC50 of reporter gene induction (ADCC Reporter Bioassay, Hepa1-6/hEREG target cells)” value in assay [11] is 1.67 ng/mL. Further, the “EC50 of reporter gene induction (ADCP Reporter Bioassay, Hepa1-6/hEREG target cells)” value in assay [12] worked out at 0.0245 µg/mL.

B2: EGL-ART10 (H240-Kn494/L73-k0//H240-H1514/L73-k0) (antibody, human IgG1, kappa)
heavy 1: B1 heavy 1 with D325K, I331E
heavy 2: B1 heavy 2 with A235G, I331E
light: B1 light
notes: Kn494: L234F/L235Q/G236W/S239M/T250V/H268D/D270E/S298A/T307P/I332E + Y349C/T366W; H1514: T250V/D270E/S298A/T307P/K326D/I332E/K334E + D356C/T366S/L368A/Y407V
For the molecule B2, the “A/I ratio (KD for FcγRIIb divided by KD for each FcγR)” value in [1] was determined as 11400 ratio; in assay [2], 17.3 ratio; in [3] it was 6.6 ratio; in assay [4], 3160 ratio. Also, the “Relative value” value in assay [5] was 1.4 times; in assay [6], 566 times; in assay [7], 2.7 times; in assay [8], 3.4 times; in assay [9] it was 1.5 times; in assay [10], 1290 times. Also, the “EC50 of reporter gene induction (ADCC Reporter Bioassay, Hepa1-6/hEREG target cells)” value in assay [11] came out at 0.107 ng/mL. Besides, in assay [12], the “EC50 of reporter gene induction (ADCP Reporter Bioassay, Hepa1-6/hEREG target cells)” value amounted to 0.0419 µg/mL.

B3: EGL-ART6 (H240-Kn462/L73-k0//H240-H1445/L73-k0) (antibody, human IgG1, kappa)
heavy 1: B1 heavy 1
heavy 2: B1 heavy 2 with A329K, I331D
light: B1 light
notes: H1445: G236A/T250V/D270E/S298A/T307P/K326D/A330K/I332D/K334E + D356C/T366S/L368A/Y407V
Regarding B3, the “A/I ratio (KD for FcγRIIb divided by KD for each FcγR)” value in assay [1] is 2630 ratio; in [2], 307 ratio; in assay [3], 42.4 ratio; in assay [4], 976 ratio. The “Relative value” value was 3.4 times in [5]; 322 times in [6]; 118 times in [7]; 1.2 times in assay [8]; 24.1 times in assay [9]; 987 times in assay [10]. The “EC50 of reporter gene induction (ADCC Reporter Bioassay, Hepa1-6/hEREG target cells)” value in assay [11] was 1.5 ng/mL. The “EC50 of reporter gene induction (ADCP Reporter Bioassay, Hepa1-6/hEREG target cells)” value in [12] worked out at 0.0192 µg/mL.

B4: EGL-ART12 (H240-Kn498/L73-k0//H240-H1518/L73-k0) (antibody, human IgG1, kappa)
heavy 1: B1 heavy 1 with D325K, A329M
heavy 2: B1 heavy 2 with A235G, A329M
light: B1 light
notes: Kn498: L234F/L235Q/G236W/S239M/T250V/H268D/D270E/S298A/T307P/A330M + Y349C/T366W; H1518: T250V/D270E/S298A/T307P/K326D/A330M/K334E + D356C/T366S/L368A/Y407V
With B4, the “A/I ratio (KD for FcγRIIb divided by KD for each FcγR)” value in assay [1] amounted to 9720 ratio; in assay [2] it was 60.3 ratio; in [3], 12.8 ratio; in assay [4], 4310 ratio. Also, the “Relative value” value in assay [5] was found to be 0.5 times; in assay [6] it was 158 times; in assay [7] it was 3.1 times; in [8], 3.4 times; in [9] it was 1 times; in assay [10] it was 578 times. In addition, in assay [11], the “EC50 of reporter gene induction (ADCC Reporter Bioassay, Hepa1-6/hEREG target cells)” value was 0.304 ng/mL. Further, the “EC50 of reporter gene induction (ADCP Reporter Bioassay, Hepa1-6/hEREG target cells)” value in [12] was determined as 0.085 µg/mL.
